The record followed here is PMC3368277.

This test concerns the target His-tagged recombinant C0–C1 domains of cardiac myosin binding protein-C (mouse). The test is described as follows: pull-down.

Sequence of His-tagged recombinant C0–C1 domains of cardiac myosin binding protein-C (mouse) (O70468 whole entry, the tested form may be a part): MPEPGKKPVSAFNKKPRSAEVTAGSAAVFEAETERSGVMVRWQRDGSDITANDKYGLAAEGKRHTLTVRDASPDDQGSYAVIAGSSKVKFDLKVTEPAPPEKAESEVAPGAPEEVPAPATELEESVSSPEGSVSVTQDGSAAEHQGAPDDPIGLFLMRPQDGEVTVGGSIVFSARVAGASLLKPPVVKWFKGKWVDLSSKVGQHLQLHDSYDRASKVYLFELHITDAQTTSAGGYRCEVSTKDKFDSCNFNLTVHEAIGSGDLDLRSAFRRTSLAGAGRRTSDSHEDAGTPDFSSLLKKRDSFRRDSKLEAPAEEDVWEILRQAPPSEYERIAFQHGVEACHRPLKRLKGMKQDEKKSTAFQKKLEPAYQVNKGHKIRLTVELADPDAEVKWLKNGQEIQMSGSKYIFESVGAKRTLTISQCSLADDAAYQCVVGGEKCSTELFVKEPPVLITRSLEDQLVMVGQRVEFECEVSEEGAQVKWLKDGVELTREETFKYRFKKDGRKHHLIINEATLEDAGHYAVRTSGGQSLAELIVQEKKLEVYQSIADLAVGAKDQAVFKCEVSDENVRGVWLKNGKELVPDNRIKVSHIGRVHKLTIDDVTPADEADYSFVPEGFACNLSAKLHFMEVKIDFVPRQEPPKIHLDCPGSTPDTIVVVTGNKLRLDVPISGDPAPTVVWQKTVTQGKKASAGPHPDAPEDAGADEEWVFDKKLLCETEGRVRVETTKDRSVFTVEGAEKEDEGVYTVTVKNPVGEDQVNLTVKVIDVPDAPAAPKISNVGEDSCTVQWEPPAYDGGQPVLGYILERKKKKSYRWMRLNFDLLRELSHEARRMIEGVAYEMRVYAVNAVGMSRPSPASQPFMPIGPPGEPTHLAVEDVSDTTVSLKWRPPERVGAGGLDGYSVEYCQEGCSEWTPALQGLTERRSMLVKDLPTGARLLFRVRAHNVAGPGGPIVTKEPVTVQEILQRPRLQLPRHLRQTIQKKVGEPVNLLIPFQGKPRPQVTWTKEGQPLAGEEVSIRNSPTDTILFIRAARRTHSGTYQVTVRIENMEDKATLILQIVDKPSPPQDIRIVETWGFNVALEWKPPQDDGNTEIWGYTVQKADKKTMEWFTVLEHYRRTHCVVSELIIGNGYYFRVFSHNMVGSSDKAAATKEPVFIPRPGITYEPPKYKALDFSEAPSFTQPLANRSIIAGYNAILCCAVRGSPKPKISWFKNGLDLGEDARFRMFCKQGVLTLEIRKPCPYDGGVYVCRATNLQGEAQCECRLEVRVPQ

For “sarcomeric actin (from UniProt P68033 1-377) (natural protein)”, the reduction of binding against C0–C2 (quantified blot) came out at 50%.
